Laboratory results taken from article doi:10.1101/2025.02.12.637823v1 (biorxiv, 2025).
Values belong to the molecule of their own block, whether it stands above or below them.

How the values were obtained:
SlNADP-ME4a = experiment: initial velocity, spectrophotometric; format: biochemical, Solanum lycopersicum; settings: pyruvate reductive carboxylation (reverse reaction); assay details not given
[1] = substrate: CC(=O)C(=O)O; experiment: initial velocity, spectrophotometric; format: biochemical, Solanum lycopersicum; settings: pyruvate reductive carboxylation (reverse reaction); assay details not given

- Km (SlNADP-ME4a): 15.5 ± 1 mM
Molecule: CC(=O)C(=O)O [pyr]

B1: SlNADP-ME2 (Solanum lycopersicum) (protein)
chain: MESALKDLSTPTGGVEDVYGEDCATEDQCITPWTIAVSSGYNLLRDPRYNKGLAFTERERDAHYLRGLLPPVISSQELQEKKLMQSIRQYDVPLHKYVAMMELEERNERLFYKLLIDNVEELLPIVYTPTVGEACQKYGSLFKRPQGLYISLNEKGRILEVLKNWPEKSIQVIVVTDGERILGLGDLGCQGMGIPVGKLALYTALGGVRPSACLPITIDVGTNNEKLLNDEFYIGLRQRRATGQEYYDFLHEFMSAVKQNYGEKILVQFEDFANHNAFELLAKYRTSHLVFNDDIQGTASVVLAGLIASLKLLGGALCDHTFLFLGAGEAGTGIAELIALEISNKTNIPVEETRKKIWLVDSKGLIVSGRKETLQAFKKPWAHEHEPVNNLLDAVKAVKPTVLIGTSGTGRTFTKEVVEAMACMNKRPLIMALSNPTSQAECTAEEAYTWSEGRAVFASGSPFPSFEYDGKLNIPGQANNCYIFPGFGFGLVMSGTIRVHDDMLLAASEALAAQVTEEHYAKGMIYPPFADIRKISAHIAASVAAKAYELGVATRLPRPADLVKYAESCMYTPNYRSYR
- Km [1]: 5.0 ± 1.1 mM
- kcat [1]: 26.5 ± 1.7 s⁻¹
